The series deals with the molecule itself. Description: cross-linking; BS3 cross-linker added to 19.4 uM MARCH5 in 50 mM Hepes pH 7.7, 100 mM NaCl, 5% glycerol, 0.1 mM TCEP, 0.001% LMNG; without lipid (control) and with cardiolipin at 1:10 molar ratio of protein to lipid; samples at 0, 15, 30 and 60 min; SDS-PAGE.

B1: MARCH5 (enzyme, human, UniProt Q9NX47 1-278, looked up)
chain: MPDQALQQMLDRSCWVCFATDEDDRTAEWVRPCRCRGSTKWVHQACLQRWVDEKQRGNSTARVACPQCNAEYLIVFPKLGPVVYVLDLADRLISKACPFAAAGIMVGSIYWTAVTYGAVTVMQVVGHKEGLDVMERADPLFLLIGLPTIPVMLILGKMIRWEDYVLRLWRKYSNKLQILNSIFPGIGCPVPRIPAEANPLADHVSATRILCGALVFPTIATIVGKLMFSSVNSNLQRTILGGIAFVAIKGAFKVYFKQQQYLRQAHRKILNYPEQEEA
notes: human MARCH5, cDNA codon-optimised for yeast (GenScript); Integral membrane protein, kept in the detergent LMNG; By the printed primers the TEV site is ENLYFQ/SQF, so ENLYFQ probably stays at the C-terminus after cleavage (surmised); also called M5; source: S. cerevisiae PAP1500, purified (DDM solubilisation, Ni resin with exchange to LMNG, TEV cleavage, reverse IMAC); not shown: yEGFP, …
Turning to B1, the binding result is “binds”.

These data come from paper PMC9034062, “Phospholipids alter activity and stability of mitochondrial membrane-bound ubiquitin ligase MARCH5” (Life Science Alliance, 2022).
